Reference: PMC5501846, “X-Ray snapshots of a pyridoxal enzyme: a catalytic mechanism involving concerted [1,5]-hydrogen sigmatropy in methionine γ-lyase” (Scientific Reports, 2017)

Key:
[1] = target: T1, EhMGL1 (Entamoeba histolytica, UniProt Q86D28); test: X-ray crystallography, […] Å; assay type: binding; conditions: covalent, Schiff base with Lys205; substrate-free enzyme
T1 construct: gene metg; homotetramer
T1 sequence (Q86D28 1-389): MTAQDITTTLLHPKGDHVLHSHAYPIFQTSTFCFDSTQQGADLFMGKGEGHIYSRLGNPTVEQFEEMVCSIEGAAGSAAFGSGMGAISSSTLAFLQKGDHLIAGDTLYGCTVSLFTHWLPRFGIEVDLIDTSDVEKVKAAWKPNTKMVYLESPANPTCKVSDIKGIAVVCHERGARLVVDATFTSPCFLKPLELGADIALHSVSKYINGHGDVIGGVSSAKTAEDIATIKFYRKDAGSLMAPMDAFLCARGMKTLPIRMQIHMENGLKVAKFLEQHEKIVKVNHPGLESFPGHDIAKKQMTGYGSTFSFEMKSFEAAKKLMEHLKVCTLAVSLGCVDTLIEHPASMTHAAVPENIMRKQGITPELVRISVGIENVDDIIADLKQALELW

[2] = target: T1, EhMGL1; test: X-ray crystallography of methionine-soaked crystals; assay type: binding; conditions: covalent Schiff base with PLP in intermediates; Michaelis complex also seen; 50 mM L-methionine soak 30–120 s, 293 K
[3] = target: L-methionine γ-lyase from Entamoeba histolytica (EhMGL1) (Entamoeba histolytica); test: crystal structure; hanging-drop vapor diffusion at 277 K, 1.8 M ammonium sulfate, 0.1 M cacodylate pH 6.6, 0.1 M lithium citrate, 100 μM PLP; substrate-free and methionine-soaked crystals (50 mM L-methionine, 30-120 s, 293 K); tetramer of two catalytic dimers in the crystal
[4] = substrate: COCC[C@H](N)C(=O)O; test: purified protein; conditions: 100 mM phosphate pH 7.0, 1 mM DTT, 20 μM PLP, 37 °C
[5] = substrate: C[Se]CC[C@H](N)C(=O)O; test: purified protein; conditions: 100 mM phosphate pH 7.0, 1 mM DTT, 20 μM PLP, 37 °C

For `Cc1ncc(COP(=O)(O)O)c(C=O)c1O` [pyridoxal 5′-phosphate], the “X-ray crystallography, 1.97 Å” value [1] was “the active site binds a PLP cofactor that forms a Schiff base”.

`CSCC[C@H](N)C(=O)O` [CH3S, L-methionine] was tested, and the “X-ray crystallography of methionine-soaked crystals” value [2] was “Crystals of EhMGL1 complexed with reaction intermediates were prepared by soaking crystals”.

“L-methionine γ-lyase from Entamoeba histolytica (EhMGL1) (enzyme)” was tested, and the stoichiometry N [3] was 4.

B1: EhMGL1 (Entamoeba histolytica) (protein)
chain: MTAQDITTTLLHPKGDHVLHSHAYPIFQTSTFCFDSTQQGADLFMGKGEGHIYSRLGNPTVEQFEEMVCSIEGAAGSAAFGSGMGAISSSTLAFLQKGDHLIAGDTLYGCTVSLFTHWLPRFGIEVDLIDTSDVEKVKAAWKPNTKMVYLESPANPTCKVSDIKGIAVVCHERGARLVVDATFTSPCFLKPLELGADIALHSVSKYINGHGDVIGGVSSAKTAEDIATIKFYRKDAGSLMAPMDAFLCARGMKTLPIRMQIHMENGLKVAKFLEQHEKIVKVNHPGLESFPGHDIAKKQMTGYGSTFSFEMKSFEAAKKLMEHLKVCTLAVSLGCVDTLIEHPASMTHAAVPENIMRKQGITPELVRISVGIENVDDIIADLKQALELW
B1 showed a Km [4] of 2500 ± 240 µM, a kcat [4] of 1.04 ± 0.35 s⁻¹ and a kcat/Km [4] of 420 ± 150 M⁻¹ s⁻¹. It also gave a Km [5] of 410 ± 70 µM.
